Test results taken from patent publication US20120213844A1.
Positions of bridges follow the written chain, without caps; N, C: chain ends. No end group written: not given here. PEG = not defined here

Target: human EGFR on tumor cells (human) (UniProt P00533)
Assay: flow cytometry on A431 cells preincubated with 2 ug EGF, 2 uM bio-P190:avidin complex, 4 C

staining, fold over background: 20 fold
B1: Biotinylated-PEGylated P190 (peptide)
peptide: DPCTWEVWGRECLQ-{PEG-biotin}
modifications: disulfide 3-12 (inferred); reading uncertain
